Columns and labels:
Assay in all cases: native MS
[1] = target: MukB^HN (MukB Head-Neck) (E. coli)
[2] = target: MukB^N (MukB Neck) (E. coli)
native MS = target: the molecule itself

Sequence of Acyl Carrier Protein (AcpP), co-purified with MukB proteins (P0A6A8 whole entry): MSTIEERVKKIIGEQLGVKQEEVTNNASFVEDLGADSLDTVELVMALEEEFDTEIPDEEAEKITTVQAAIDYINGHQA

stoichiometry N [1] | stoichiometry N [2] | Molecule | binding result (native MS)
1 | 1 | Acyl Carrier Protein (AcpP), co-purified with MukB proteins (from UniProt P0A6A8 1-78) (natural protein) | –
– | 2 | MukB^N (MukB Neck) (domain or fragment) | –
– | – | MukB-His (wild type MukB) (natural protein, E. coli, UniProt P22523 1-1486, looked up) MIERGKFRSLTLINWNGFFARTFDLDELVTTLSGGNGAGKSTTMAAFVTALIPDLTLLHFRNTTEAGATSGSRDKGLHGKLKAGVCYSMLDTINSRHQRVVVGVRLQQVAGRDRKVDIKPFAIQGLPMSVQPTQLVTETLNERQARVLPLNELKDKLEAMEGVQFKQFNSITDYHSLMFDLGIIARRLRSASDRSKFYRLIEASLYGGISSAITRSLRDYLLPENSGVRKAFQDMEAALRENRMTLEAIRVTQSDRDLFKHLISEATNYVAADYMRHANERRVHLDKALEFRRELHTSRQQLAAEQYKHVDMARELAEHNGAEGDLEADYQAASDHLNLVQTALRQQEKIERYEADLDELQIRLEEQNEVVAEAIERQQENEARAEAAELEVDELKSQLADYQQALDVQQTRAIQYNQAIAALNRAKELCHLPDLTADCAAEWLETFQAKELEATEKMLSLEQKMSMAQTAHSQFEQAYQLVVAINGPLARNEAWDVARELLREGVDQRHLAEQVQPLRMRLSELEQRLREQQEAERLLADFCKRQGKNFDIDELEALHQELEARIASLSDSVSNAREERMALRQEQEQLQSRIQSLMQRAPVWLAAQNSLNQLSEQCGEEFTSSQDVTEYLQQLLEREREAIVERDEVGARKNAVDEEIERLSQPGGSEDQRLNALAERFGGVLLSEIYDDVSLEDAPYFSALYGPSRHAIVVPDLSQVTEHLEGLTDCPEDLYLIEGDPQSFDDSVFSVDELEKAVVVKIADRQWRYSRFPEVPLFGRAARESRIESLHAEREVLSERFATLSFDVQKTQRLHQAFSRFIGSHLAVAFESDPEAEIRQLNSRRVELERALSNHENDNQQQRIQFEQAKEGVTALNRILPRLNLLADDSLADRVDEIRERLDEAQEAARFVQQFGNQLAKLEPIVSVLQSDPEQFEQLKEDYAYSQQMQRDARQQAFALTEVVQRRAHFSYSDSAEMLSGNSDLNEKLRERLEQAEAERTRAREALRGHAAQLSQYNQVLASLKSSYDTKKELLNDLQRELQDIGVRADSGAEERARIRRDELHAQLSNNRSRRNQLEKALTFCEAEMDNLTRKLRKLERDYFEMREQVVTAKAGWCAVMRMVKDNGVERRLHRRELAYLSADDLRSMSDKALGALRLAVADNEHLRDVLRMSEDPKRPERKIQFFVAVYQHLRERIRQDIIRTDDPVEAIEQMEIELSRLTEELTSREQKLAISSRSVANIIRKTIQREQNRIRMLNQGLQNVSFGQVNSVRLNVNVRETHAMLLDVLSEQHEQHQDLFNSNRLTFSEALAKLYQRLNPQIDMGQRTPQTIGEELLDYRNYLEMEVEVNRGSDGWLRAESGALSTGEAIGTGMSILVMVVQSWEDESRRLRGKDISPCRLLFLDEAARLDARSIATLFELCERLQMQLIIAAPENISPEKGTTYKLVRKVFQNTEHVHVVGLRGFAPQLPETLPGTDEAPSQAS | binds

— paper doi:10.1101/2021.04.12.439405 (bioRxiv, 2021)
